Laboratory results from the RNAGym collection of RNA variant scans (doi:10.1073/pnas.2313332121).

B1: TPR t1 (parent)
chain: GACCAAUCUGCCCUCAGAGCUCGAGAACAUCUUCGGAUGCAGAGGAGGCAGGCUUCGGUGGCGCGAUAGCGCCAACGUCCUCAACCUCCAAUGCAUCCCACCACAUGAUGAUGCCUGAAGAGCCUUGGUUUUUUG

Variants of: B1
Assay: polymerase ribozyme fitness, log enrichment relative to wild type (log ratio); higher = more active; in vitro selection for triplet polymerase activity
How it was run: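 PCR was used to build mutant libraries for each subunit of a heterodimeric triplet polymerase ribozyme, which were then transcribed. A single in vitro selection round, in triplicate, used a frozen incubation at −7 °C and recovered extended constructs by gel excision, streptavidin beads and RT-PCR. Fitness is the logarithm of genotype enrichment relative to wild-type enrichment, averaged over replicates with inverse-variance weights. The logarithm is base 2, and after Illumina sequencing only genotypes with ≥10 input reads and ≥1 read per output were kept.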

| Variant | polymerase ribozyme fitness (log ratio) |
| --- | --- |
| G47U C70A | -4.28 |
| G47U C123U | -0.404 |
| G47U C49G C88A A95C C123A | -3.47 |
| G48U A83G C97U C104A G120A | -3.43 |
| G48C C56A | -1.68 |
| G48C U131A | -1.82 |
| G48A G93A C114G | -3.84 |
| G48A A84G | -0.314 |
| G48A A84C | -0.643 |
| G47U G48U | -2.67 |
| G47U G48C | -1.51 |
| G48C G60A | -1.1 |
| G48C G60C | -1.63 |
| G48C C62U | -2.91 |
| G47U C85U C97A C124G | -4.97 |
| G47U C64A | -6.47 |
| G48U A66U C72A U96G U112C | -1.61 |
| G48C C64G C124U | -5.87 |
| G48A U54G G71U C85U | -4.47 |
| G47U G48A A121U | 1.01 |
| G47U U54G C104U | -1.47 |

| Variant | polymerase ribozyme fitness (log ratio) |
| --- | --- |
| G48A G57A G69U | -0.155 |
| G48U C49A C73A C115U U133C | -1.19 |
| G48A G61U U112A U125G G127C | -0.619 |
| G48C U55C A95C C98U | -3.28 |
| G48A U81A C102U | -4.06 |
| G48C C101U A105G G120U | -3.67 |
| G47C U106A | -1.41 |
| G48A C62G | -2.29 |
| G48C C49A G128A | -3.09 |
| G47U C76U | -1.17 |
| G48C A95G U106A | -0.768 |
| G48A G51U | -2.61 |
| G47U U54C C56A C80U C124G | -1.14 |
| G47U G69C A105U | -5.38 |
| G48A G61U | -0.0763 |
| G47U C101A | -2.91 |
| G48C G71C | -0.845 |
| G48A G69U C82G G113U U132A | -2.33 |
| G48C G61U C98U U112C | -1.23 |
| G47U C88A | -6.05 |
| G47U U112A | 0.352 |

| Variant | polymerase ribozyme fitness (log ratio) |
| --- | --- |
| G47U U112C | -0.538 |
| G48C C70U C85U G107U | -6.63 |
| G48A C97A | -5.22 |
| G48A C124G | 0.442 |
| G48A A111G | -0.578 |
| G48A A111C | -0.446 |
| G48A C72G C124U | 0.723 |
| G48C A50G G51U C56G G117A | -5.49 |
| G48A C56U U59C C86A C94A A111C | -5.39 |
| G48U C56U C104A | -2.25 |
| G48C C56G C101U U125G | -1.87 |
| G48C C49U G71C C102A | -4.66 |
| G47U G58C G63U | -1.75 |
| G48A C49G G51U C94A A111U | -6.59 |
| G47U C56U U116C | -2.14 |
| G48C G60U A74U C115U | -2.52 |
| G48C G52U U55G C76U A100C U125G | -4.57 |
| G47U G71C U126G | -3.65 |
| G47U G61A U131A | -0.875 |
| G47U G63A A111G G120A | -3.58 |
| G48C U87G A95C | -3 |

| Variant | polymerase ribozyme fitness (log ratio) |
| --- | --- |
| G47U C72G A90G | -1.68 |
| G47U C53G U96G C104U A118G C124U | -1.59 |
| G48C G60U A105C U116C | -5.8 |
| G47C U55G C88U | -1.25 |
| G47U A100U | -2.31 |
| G47U A100C | -2.83 |
| G48C C104U G135U | -1.53 |
| G48U C62A U78G | -1.98 |
| G47U C73A C85U | -1.61 |
| G47U U116A | -3.64 |
| G48U C64U | -0.368 |
| G47U G61C A90U G117C | -6.8 |
| G48C A90G | 0.432 |
| G47U A95U C101U C104A A111G C123G | -5.49 |
| G48C C56U C73G | -1.95 |
| G47U C86G | -0.954 |
| G48A C86G A118C | -3.12 |
| G47U G60U U116C U131A U132C | -1.54 |
| G47U G58C C73G C104U A121U | -5.16 |
| G47U G52A C72U | -2.43 |
| G48U C62U | -0.185 |
